Laboratory results as given in US20200308575A1 (TWIST BIOSCIENCE, published 2020).
Where two headings read alike, the source gives them in different places.

Tests used:
[1] = molecular target: T1, program cell death protein 1 (PD-1) (UniProt Q15116 25-167, limits assumed); test: cell-based or functional assay
[2] = molecular target: T1, program cell death protein 1 (PD-1); test: SPR (Carterra LSA), IgG, monovalent affinity
[3] = molecular target: T1, program cell death protein 1 (PD-1); test: SPR (Carterra LSA), IgG, monovalent affinity; remark: listed apart in the source

T1 sequence (Q15116 25-167 limits assumed): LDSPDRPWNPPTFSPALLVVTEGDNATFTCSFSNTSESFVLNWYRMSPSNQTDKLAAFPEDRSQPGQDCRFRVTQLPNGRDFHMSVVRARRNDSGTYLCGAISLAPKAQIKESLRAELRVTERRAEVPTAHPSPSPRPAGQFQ

B1: PD1-1 (antibody, V domains shown)
VH: QVQLVQSGAEVKKPGASVKVSCKASGYTFSHYGISWVRQAPGQGLEWMGWVSAYSGNTRYAQKLQGRVTMTTDTSTSTAYMELRSLRSDDTAVYYCARDATYSSGSGYWGQGTLVTVSS
VL: SYELMQPPSVSVSPGQTARITCSGDALPTQYAYWYQQKPGQAPVLVIYQDNERPSGIPERFSGSSSGTTVTLTISGVQAEDEADYYCQSADNSITYRVFGGGTKLTVL
notes: IgG in the assay
B1 was tested, and the “Bmax (RU) (PD-1/PD-L1 blockade assay)” value [1] was 693 RU, the “IC50 (PD-1/PD-L1 blockade assay)” value [1] was 0.434 nM and the Kd [2] was 4.52 nM. The Kd [3] was 4.5 nM.

B2: PD1-2 (antibody, V domains shown)
VH: QVQLVQSGAEVKKPGASVKVSCKASGYSFSNYGISWVRQAPGQGLEWMGWVSAYSGNTNYAQKLQGRVTMTTDTSTSTAYMELRSLRSDDTAVYYCARDADYASGSGYWGQGTLVTVSS
VL: SYELMQPPSVSVSPGQTARITCSGDELPNQYAYWYQQKPGQAPVLVIYKDTQRPSGIPERFSGSSSGTTVTLTISGVQAEDEADYYCQSADNSITYRVFGGGTKLTVL
notes: IgG in the assay
B2 was tested, and the “Bmax (RU) (PD-1/PD-L1 blockade assay)” value [1] was 661 RU, the “IC50 (PD-1/PD-L1 blockade assay)” value [1] was 0.848 nM and the Kd [3] was 9.8 nM.

B3: PD1-7 (antibody, V domains shown)
VH: QVQLVQSGAEVKKPGASVKVSCKASGYTFTHYGITWVRQAPGQGLEWMGWISAYSGSTNYAQKLQGRVTMTTDTSTSTAYMELRSLRSDDTAVYYCARDADYSIGSGYWGQGTLVTVSS
VL: SYELMQPPSVSVSPGQTARITCSGDALPNQYAFWYQQKPGQAPVLVIYKDNERPSGIPERFSGSSSGTTVTLTISGVQAEDEADYYCQSADNSITYRVFGGGTKLTVL
notes: IgG in the assay
With B3 the “Bmax (RU) (PD-1/PD-L1 blockade assay)” value [1] was 642 RU, the “IC50 (PD-1/PD-L1 blockade assay)” value [1] was 0.896 nM and the Kd [3] was 10.5 nM.

B4: PD1-8 (antibody, V domains shown)
VH: QVQLVQSGAEVKKPGASVKVSCKASGYTFSHYGISWVRQAPGQGLEWMGWISPYSGNTKYAQKLQGRVTMTTDTSTSTAYMELRSLRSDDTAVYYCARDNDYSSGSGYWGQGTLVTVSS
VL: SYELMQPPSVSVSPGQTARITCSGDELPKQYAYWYQQKPGQAPVLVIYKDNERASGIPERFSGSSSGTTVTLTISGVQAEDEADYYCQSADNSITYRVFGGGTKLTVL
notes: IgG in the assay
In the case of B4, the “Bmax (RU) (PD-1/PD-L1 blockade assay)” value [1] is reported as 436 RU, the “IC50 (PD-1/PD-L1 blockade assay)” value [1] is reported as 1.97 nM and the Kd [3] is reported as 78.1 nM.
